From publication PMC8424649 (2021) come the findings set out here.

B1: GFP-FAN1, full-length FAN1 (FAN1^FL) [human] / MLH1 (endogenous, human) [human (endogenous in iPSCs, lymphoblastoid cells, U2OS, HEK293T, MSNs, HeLa)] (parent complex)
chain 1: MMSEGKPPDKKRPRRSLSISKNKKKASNSIISCFNNAPPAKLACPVCSKMVPRYDLNRHLDEMCANNDFVQVDPGQVGLINSNVSMVDLTSVTLEDVTPKKSPPPKTNLTPGQSDSAKREVKQKISPYFKSNDVVCKNQDELRNRSVKVICLGSLASKLSRKYVKAKKSIDKDEEFAGSSPQSSKSTVVKSLIDNSSEIEDEDQILENSSQKENVFKCDSLKEECIPEHMVRGSKIMEAESQKATRECEKSALTPGFSDNAIMLFSPDFTLRNTLKSTSEDSLVKQECIKEVVEKREACHCEEVKMTVASEAKIQLSDSEAKSHSSADDASAWSNIQEAPLQDDSCLNNDIPHSIPLEQGSSCNGPGQTTGHPYYLRSFLVVLKTVLENEDDMLLFDEQEKGIVTKFYQLSATGQKLYVRLFQRKLSWIKMTKLEYEEIALDLTPVIEELTNAGFLQTESELQELSEVLELLSAPELKSLAKTFHLVNPNGQKQQLVDAFLKLAKQRSVCTWGKNKPGIGAVILKRAKALAGQSVRICKGPRAVFSRILLLFSLTDSMEDEDAACGGQGQLSTVLLVNLGRMEFPSYTINRKTHIFQDRDDLIRYAAATHMLSDISSAMANGNWEEAKELAQCAKRDWNRLKNHPSLRCHEDLPLFLRCFTVGWIYTRILSRFVEILQRLHMYEEAVRELESLLSQRIYCPDSRGRWWDRLALNLHQHLKRLEPTIKCITEGLADPEVRTGHRLSLYQRAVRLRESPSCKKFKHLFQQLPEMAVQDVKHVTITGRLCPQRGMCKSVFVMEAGEAADPTTVLCSVEELALAHYRRSGFDQGIHGEGSTFSTLYGLLLWDIIFMDGIPDVFRNACQAFPLDLCTDSFFTSRRPALEARLQLIHDAPEESLRAWVAATWHEQEGRVASLVSWDRFTSLQQAQDLVSCLGGPVLSGVCRHLAADFRHCRGGLPDLVVWNSQSRHFKLVEVKGPNDRLSHKQMIWLAELQKLGAEVEVCHVVAVGAKSQSLS
chain 2: MSFVAGVIRRLDETVVNRIAAGEVIQRPANAIKEMIENCLDAKSTSIQVIVKEGGLKLIQIQDNGTGIRKEDLDIVCERFTTSKLQSFEDLASISTYGFRGEALASISHVAHVTITTKTADGKCAYRASYSDGKLKAPPKPCAGNQGTQITVEDLFYNIATRRKALKNPSEEYGKILEVVGRYSVHNAGISFSVKKQGETVADVRTLPNASTVDNIRSIFGNAVSRELIEIGCEDKTLAFKMNGYISNANYSVKKCIFLLFINHRLVESTSLRKAIETVYAAYLPKNTHPFLYLSLEISPQNVDVNVHPTKHEVHFLHEESILERVQQHIESKLLGSNSSRMYFTQTLLPGLAGPSGEMVKSTTSLTSSSTSGSSDKVYAHQMVRTDSREQKLDAFLQPLSKPLSSQPQAIVTEDKTDISSGRARQQDEEMLELPAPAEVAAKNQSLEGDTTKGTSEMSEKRGPTSSNPRKRHREDSDVEMVEDDSRKEMTAACTPRRRIINLTSVLSLQEEINEQGHEVLREMLHNHSFVGCVNPQWALAQHQTKLYLLNTTKLSEELFYQILIYDFANFGVLRLSEPAPLFDLAMLALDSPESGWTEEDGPKEGLAEYIVEFLKKKAEMLADYFSLEIDEEGNLIGLPLLIDNYVPPLEGLPIFILRLATEVNWDEEKECFESLSKECAMFYSIRKQYISEESTLSGQQSEVPGSIPNSWKWTVEHIVYKALRSHILPPKHFTEDGNILQLANLPDLYKVFERC

In the assay the parent is B1. Kind of assay: GFP-Trap pull-down, quantified immunoblot; U2OS cell extracts; n = 5 biological replicates; parent: 100; read off a plot. In general terms: A western blot detects proteins with antibodies after separation by electrophoresis.
For chain 1 S126A, the percent of parent was about 10. For chain 1 Q123A the value was about 110; for chain 1 F129A, about 5; for chain 1 Y128A, about 1.
